These results are taken from patent US6921663.

Test in all cases: cell-based or functional assay
Test [1] deals with RGD peptide target integrin (αvβ3 or αvβ5) on LN444 cells (human (LN444 human glioma cells)) (UniProt P06756).
Test [2] addresses integrin on SK-HEP1 cells (human (cell line)).
The target of the next test is integrin on CHO cells.

UniProt P06756, sequence (P06756 whole entry): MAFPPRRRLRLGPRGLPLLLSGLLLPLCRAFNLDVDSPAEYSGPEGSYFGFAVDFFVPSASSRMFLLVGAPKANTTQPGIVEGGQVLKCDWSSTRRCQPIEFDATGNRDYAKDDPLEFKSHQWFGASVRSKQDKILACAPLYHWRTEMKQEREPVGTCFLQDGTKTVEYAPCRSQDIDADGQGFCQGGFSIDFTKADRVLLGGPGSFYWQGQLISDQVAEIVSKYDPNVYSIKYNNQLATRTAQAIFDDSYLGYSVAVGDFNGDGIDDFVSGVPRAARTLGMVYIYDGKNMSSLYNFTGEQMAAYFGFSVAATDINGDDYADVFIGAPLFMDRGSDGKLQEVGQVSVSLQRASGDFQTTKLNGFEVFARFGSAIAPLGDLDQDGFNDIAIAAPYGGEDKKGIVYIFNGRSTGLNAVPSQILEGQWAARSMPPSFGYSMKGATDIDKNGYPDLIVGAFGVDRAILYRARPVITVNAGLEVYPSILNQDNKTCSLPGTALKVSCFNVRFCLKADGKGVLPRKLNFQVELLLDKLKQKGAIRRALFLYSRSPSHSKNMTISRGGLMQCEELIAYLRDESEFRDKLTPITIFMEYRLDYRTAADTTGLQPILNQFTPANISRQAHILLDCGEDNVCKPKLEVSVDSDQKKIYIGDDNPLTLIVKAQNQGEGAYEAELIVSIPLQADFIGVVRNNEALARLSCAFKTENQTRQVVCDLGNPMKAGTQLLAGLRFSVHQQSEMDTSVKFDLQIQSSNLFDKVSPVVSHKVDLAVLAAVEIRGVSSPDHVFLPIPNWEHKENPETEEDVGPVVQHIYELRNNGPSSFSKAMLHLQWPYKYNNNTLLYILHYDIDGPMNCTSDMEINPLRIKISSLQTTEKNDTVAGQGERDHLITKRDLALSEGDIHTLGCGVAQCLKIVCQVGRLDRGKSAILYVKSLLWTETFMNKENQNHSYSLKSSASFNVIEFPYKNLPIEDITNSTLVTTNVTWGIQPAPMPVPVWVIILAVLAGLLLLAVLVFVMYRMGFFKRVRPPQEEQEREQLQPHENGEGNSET

As for “AdHM15-RGD-L2 (adenovirus type 5 vector whose fiber carries the RGD-4C peptide in the HI loop; luciferase cassette) (from UniProt P11818 1-546; P11818 547-581)”, the Luc enzyme activity after transduction of LN444 cells (CAR not expressed), against AdHM4-L2 (wild fiber) in test [1] stood at 1000 fold. The Luc enzyme activity after transduction of SK-HEP1 cells, against AdHM4-L2 (wild fiber) in test [2] came out at 10 fold.
Consider “AdHM15-RGD-LacZ (adenovirus type 5 vector whose fiber carries the RGD-4C peptide in the HI loop; LacZ cassette in the E1-deleted region) (from UniProt P11818 1-546; P11818 547-581)”, for which the LacZ enzyme activity after transduction of CHO cells (CAR not expressed), against AdHM4-LacZ (wild fiber) in the test with integrin on CHO cells was determined as 40 fold. This substance returned a LacZ enzyme activity after transduction of SK-HEP1 cells, against AdHM4-LacZ (wild fiber) in test [2] of 2 fold.
